Measured values: publication PMC6554949, “Arabidopsis thaliana organelles mimic the T7 phage DNA replisome with specific interactions between Twinkle protein and DNA polymerases Pol1A and Pol1B” (BMC Plant Biology, 2019)

T1: polyhistidine-tagged Pol1B (recombinant, fluorescently labelled) (Arabidopsis thaliana, UniProt Q84ND9 56-1034, fluorescent dye RED-tris-NTA (Monolith His-Tag Labeling Kit) on the His tag)
T1 construct: DNA polymerase 1B, Arabidopsis thaliana, At3g20540; also called his-tagged Pol1B; DNA polymerase 1B; source: recombinant, purified
T1 sequence (looked up): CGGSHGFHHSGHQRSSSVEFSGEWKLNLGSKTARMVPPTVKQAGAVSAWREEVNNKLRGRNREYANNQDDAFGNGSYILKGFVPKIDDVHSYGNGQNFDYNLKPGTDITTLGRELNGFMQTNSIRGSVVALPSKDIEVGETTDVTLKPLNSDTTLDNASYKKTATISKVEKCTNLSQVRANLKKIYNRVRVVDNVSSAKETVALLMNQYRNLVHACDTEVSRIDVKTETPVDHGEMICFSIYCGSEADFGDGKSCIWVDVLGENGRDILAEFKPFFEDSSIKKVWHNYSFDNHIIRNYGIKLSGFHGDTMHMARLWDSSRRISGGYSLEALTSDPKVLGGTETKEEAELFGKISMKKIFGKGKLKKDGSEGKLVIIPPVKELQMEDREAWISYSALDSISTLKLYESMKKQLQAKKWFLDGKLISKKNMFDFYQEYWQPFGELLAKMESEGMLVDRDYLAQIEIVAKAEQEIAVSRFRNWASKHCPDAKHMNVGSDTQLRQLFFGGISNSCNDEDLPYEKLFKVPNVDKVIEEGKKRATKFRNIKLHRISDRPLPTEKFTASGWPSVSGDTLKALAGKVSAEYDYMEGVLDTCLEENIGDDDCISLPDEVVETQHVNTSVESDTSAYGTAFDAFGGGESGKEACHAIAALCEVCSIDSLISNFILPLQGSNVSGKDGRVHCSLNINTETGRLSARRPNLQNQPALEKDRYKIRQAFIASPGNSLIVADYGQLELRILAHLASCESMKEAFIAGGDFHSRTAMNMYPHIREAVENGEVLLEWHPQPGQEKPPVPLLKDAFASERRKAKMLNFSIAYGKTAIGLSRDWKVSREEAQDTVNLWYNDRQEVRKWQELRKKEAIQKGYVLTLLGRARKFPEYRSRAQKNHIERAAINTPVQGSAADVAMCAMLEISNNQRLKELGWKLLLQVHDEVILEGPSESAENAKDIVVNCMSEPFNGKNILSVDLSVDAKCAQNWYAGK


Columns and labels:
[1] = molecular target: T7 primase-helicase (Escherichia phage T7) (UniProt P03692); details: cited from earlier work
DnaE (Bacillus subtilis) = DnaE (Bacillus subtilis) (UniProt O34623); details: cited from earlier work
[2] = molecular target: T1, polyhistidine-tagged Pol1B …; assay: MST; His-tagged Pol1B labelled with RED-tris-NTA, constant 20 nM (10 nM in the results text); ligands in 16 serial dilutions; PBS + 0.05% Tween; Monolith NT.115p, 10% LED power, 50% MST power, standard capillaries; details: both partners purified

Chain of T7 primase-helicase (Escherichia phage T7) (P03692 whole entry): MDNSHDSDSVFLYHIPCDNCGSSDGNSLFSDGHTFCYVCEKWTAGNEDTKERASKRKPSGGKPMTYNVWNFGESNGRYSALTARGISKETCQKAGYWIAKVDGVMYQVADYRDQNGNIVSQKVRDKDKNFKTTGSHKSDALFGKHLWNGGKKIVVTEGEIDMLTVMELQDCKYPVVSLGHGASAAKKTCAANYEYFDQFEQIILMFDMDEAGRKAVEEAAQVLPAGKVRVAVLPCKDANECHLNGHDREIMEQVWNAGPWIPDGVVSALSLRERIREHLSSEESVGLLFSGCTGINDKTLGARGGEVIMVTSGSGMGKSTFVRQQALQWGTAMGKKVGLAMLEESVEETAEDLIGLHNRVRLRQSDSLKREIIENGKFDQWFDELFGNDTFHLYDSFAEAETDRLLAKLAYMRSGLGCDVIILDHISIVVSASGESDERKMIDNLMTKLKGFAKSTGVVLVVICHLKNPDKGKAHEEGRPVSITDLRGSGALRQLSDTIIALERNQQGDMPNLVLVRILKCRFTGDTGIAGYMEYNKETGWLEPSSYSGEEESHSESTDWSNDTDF
Chain of DnaE (Bacillus subtilis) (O34623 whole entry): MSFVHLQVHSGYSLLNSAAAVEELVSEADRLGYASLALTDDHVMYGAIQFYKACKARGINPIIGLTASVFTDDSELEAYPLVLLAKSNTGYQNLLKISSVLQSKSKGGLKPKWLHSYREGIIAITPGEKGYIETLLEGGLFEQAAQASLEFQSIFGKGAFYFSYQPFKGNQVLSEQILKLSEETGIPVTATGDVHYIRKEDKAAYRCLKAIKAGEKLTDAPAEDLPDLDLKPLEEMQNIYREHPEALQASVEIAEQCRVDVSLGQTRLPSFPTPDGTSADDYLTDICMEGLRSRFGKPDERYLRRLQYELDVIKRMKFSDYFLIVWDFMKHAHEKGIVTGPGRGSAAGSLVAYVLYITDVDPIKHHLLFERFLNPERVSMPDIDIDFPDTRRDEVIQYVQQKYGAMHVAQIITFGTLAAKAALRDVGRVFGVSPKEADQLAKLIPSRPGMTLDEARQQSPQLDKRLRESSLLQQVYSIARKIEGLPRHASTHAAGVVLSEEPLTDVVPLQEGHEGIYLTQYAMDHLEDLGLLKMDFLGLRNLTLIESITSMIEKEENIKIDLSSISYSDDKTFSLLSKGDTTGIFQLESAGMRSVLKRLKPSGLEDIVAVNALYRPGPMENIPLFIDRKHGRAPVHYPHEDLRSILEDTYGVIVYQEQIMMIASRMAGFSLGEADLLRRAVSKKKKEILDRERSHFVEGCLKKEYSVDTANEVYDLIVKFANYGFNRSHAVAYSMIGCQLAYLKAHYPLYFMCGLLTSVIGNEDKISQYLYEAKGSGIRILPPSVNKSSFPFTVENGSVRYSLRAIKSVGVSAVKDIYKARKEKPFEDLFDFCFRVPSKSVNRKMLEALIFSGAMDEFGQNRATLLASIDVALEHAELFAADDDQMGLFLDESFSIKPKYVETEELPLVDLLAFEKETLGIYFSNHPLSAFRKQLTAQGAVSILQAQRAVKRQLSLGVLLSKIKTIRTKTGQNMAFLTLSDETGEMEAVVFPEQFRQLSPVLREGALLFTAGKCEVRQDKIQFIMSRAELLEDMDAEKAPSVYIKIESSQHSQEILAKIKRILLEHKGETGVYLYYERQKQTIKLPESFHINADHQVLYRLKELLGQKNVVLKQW
Chain of DnaG primase (P05096 whole entry): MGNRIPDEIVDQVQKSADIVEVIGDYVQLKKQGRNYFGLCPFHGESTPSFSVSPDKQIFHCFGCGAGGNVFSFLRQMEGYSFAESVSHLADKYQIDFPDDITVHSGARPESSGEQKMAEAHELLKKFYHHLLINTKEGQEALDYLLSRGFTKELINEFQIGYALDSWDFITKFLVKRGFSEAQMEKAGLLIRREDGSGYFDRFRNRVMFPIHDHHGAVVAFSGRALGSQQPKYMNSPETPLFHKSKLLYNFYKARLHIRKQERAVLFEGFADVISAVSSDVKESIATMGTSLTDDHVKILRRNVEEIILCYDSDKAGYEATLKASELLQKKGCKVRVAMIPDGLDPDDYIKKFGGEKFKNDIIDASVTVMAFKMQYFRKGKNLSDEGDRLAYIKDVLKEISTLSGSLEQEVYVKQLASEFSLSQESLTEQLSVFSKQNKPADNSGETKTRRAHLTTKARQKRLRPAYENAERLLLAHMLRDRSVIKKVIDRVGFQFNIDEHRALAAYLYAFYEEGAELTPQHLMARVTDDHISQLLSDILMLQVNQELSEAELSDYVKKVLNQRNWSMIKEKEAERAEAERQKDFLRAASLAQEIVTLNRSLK
Chain of T7 DNA polymerase (P00581 whole entry): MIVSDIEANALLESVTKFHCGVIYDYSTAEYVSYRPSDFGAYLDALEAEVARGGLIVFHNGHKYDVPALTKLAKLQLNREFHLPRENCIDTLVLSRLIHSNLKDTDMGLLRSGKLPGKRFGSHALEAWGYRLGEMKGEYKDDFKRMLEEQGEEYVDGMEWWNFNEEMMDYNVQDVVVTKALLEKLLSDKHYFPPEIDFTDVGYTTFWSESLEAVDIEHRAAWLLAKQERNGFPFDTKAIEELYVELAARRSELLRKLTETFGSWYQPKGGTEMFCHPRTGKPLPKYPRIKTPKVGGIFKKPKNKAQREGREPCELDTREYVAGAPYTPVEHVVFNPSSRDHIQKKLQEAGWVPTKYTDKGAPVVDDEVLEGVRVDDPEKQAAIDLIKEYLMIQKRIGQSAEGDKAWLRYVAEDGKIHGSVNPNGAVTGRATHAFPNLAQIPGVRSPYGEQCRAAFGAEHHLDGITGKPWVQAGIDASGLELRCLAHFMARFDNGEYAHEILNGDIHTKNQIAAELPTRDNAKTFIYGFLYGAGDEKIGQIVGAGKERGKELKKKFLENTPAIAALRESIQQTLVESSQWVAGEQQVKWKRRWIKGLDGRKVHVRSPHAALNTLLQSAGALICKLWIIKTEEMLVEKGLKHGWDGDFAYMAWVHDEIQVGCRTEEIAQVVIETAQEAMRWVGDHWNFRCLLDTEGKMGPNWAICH

Molecule | Kd [2] [µM] | further results
T7 DNA polymerase (from UniProt P00581) |  | Kd [1]: 0.44 µM
DnaG primase (from UniProt P05096) |  | Kd (DnaE (Bacillus subtilis)): 0.75 µM
Twinkle primase domain (residues 92-410) (domain or fragment, Arabidopsis thaliana, UniProt B5X582 92-410, looked up, Twinkle, Arabidopsis thaliana, At1g30680, primase domain, residues 92-410; Tag removed with PreScission protease; also called primase module) TPVDTEVEADKRVVLSRLVTLRRKLAEQGVDAENCPPGQHSGLICPTCEGGNSGEKSLSLFIAPDGSSATWNCFRGKCGLKGGVRADGGLASADPIEKVERKITVEGIELEPLCDEIQDYFAARAISRKTLERNRVMQKRIGDEIVIAFTYWQRGELVSCKYRSLTKMFFQERKTRRILYGLDDIEKTSEVIIVEGEIDKLAMEEAGFLNCVSVPDGAPAKVSSKEIPSEDKDTKYKFLWNCNDYLKKASRIVIATDGDGPGQAMAEEIARRLGKERCWRVKWPKKSEDEHFKDANEVLMSKGPHLLKEAILDAEPYPI | 0.81 | 
full-length Twinkle (recombinant, without histidine tag) (enzyme, Arabidopsis thaliana, UniProt B5X582 82-709, looked up, Twinkle, Arabidopsis thaliana, At1g30680; called full-length in the results and legend; the methods name 'Twinkle lacking the first 91 codons' as the template of the domain constructs; Used without a histidine tag; It may in fact be the form lacking the first 91 residues (92-709); also called the full-length protein) SSYNSIPRVPTPVDTEVEADKRVVLSRLVTLRRKLAEQGVDAENCPPGQHSGLICPTCEGGNSGEKSLSLFIAPDGSSATWNCFRGKCGLKGGVRADGGLASADPIEKVERKITVEGIELEPLCDEIQDYFAARAISRKTLERNRVMQKRIGDEIVIAFTYWQRGELVSCKYRSLTKMFFQERKTRRILYGLDDIEKTSEVIIVEGEIDKLAMEEAGFLNCVSVPDGAPAKVSSKEIPSEDKDTKYKFLWNCNDYLKKASRIVIATDGDGPGQAMAEEIARRLGKERCWRVKWPKKSEDEHFKDANEVLMSKGPHLLKEAILDAEPYPILGLFSFKDFFDEIDAYYDRTHGHEYGVSTGWKNLDNLYSVVPGELTVVTGIPNSGKSEWIDAMLCNLNHSVGWKFALCSMENKVRDHARKLLEKHIKKPFFDADYGRSVQRMSVEEKDEGKKWLNDTFYPIRCEMDSLPSIDWVLERAKAAVLRYGIRGLVIDPYNELDHQRTPRQTETEYVSQMLTKIKRFSQHHSCHVWFVAHPKQLQHWDGGAPNLYDISGSAHFINKCDNGIIVHRNRDENAGPLDLVQIGVRKVRNKVAGQIGDAYLCYDRTTGSYSDSPVTPGMPERRSPKRY | 1.26 | 
Twinkle helicase domain (401-709) (domain or fragment, Arabidopsis thaliana, UniProt B5X582 401-709, looked up, Twinkle, Arabidopsis thaliana, At1g30680, helicase domain, residues 401-709; Tags of the pCri-1b vector removed with TEV protease; also called helicase module; source: cloned into pCri-1b, purified (potassium phosphate pH 7.0 buffer)) AILDAEPYPILGLFSFKDFFDEIDAYYDRTHGHEYGVSTGWKNLDNLYSVVPGELTVVTGIPNSGKSEWIDAMLCNLNHSVGWKFALCSMENKVRDHARKLLEKHIKKPFFDADYGRSVQRMSVEEKDEGKKWLNDTFYPIRCEMDSLPSIDWVLERAKAAVLRYGIRGLVIDPYNELDHQRTPRQTETEYVSQMLTKIKRFSQHHSCHVWFVAHPKQLQHWDGGAPNLYDISGSAHFINKCDNGIIVHRNRDENAGPLDLVQIGVRKVRNKVAGQIGDAYLCYDRTTGSYSDSPVTPGMPERRSPKRY | 1.97 | 
Twinkle zinc finger subdomain (residues 92-186) (domain or fragment, Arabidopsis thaliana, UniProt B5X582 92-186, looked up, Twinkle, Arabidopsis thaliana, At1g30680, zinc finger subdomain, residues 92-186; Tag removed with PreScission protease; also called Zn++ Finger domain; zf) TPVDTEVEADKRVVLSRLVTLRRKLAEQGVDAENCPPGQHSGLICPTCEGGNSGEKSLSLFIAPDGSSATWNCFRGKCGLKGGVRADGGLASADP | 2.17 | 
